# Test results from patent US20240409960A1, “METHOD FOR CONTROLLING PROTEIN FUNCTION” (The University of Tokyo, priority 2021, published 2024).
# B1: DD-Cre: destabilized Cre tagged with one ecDHFR-derived DD sequence; SEQ ID No: 3 (protein)
# chain: MVSKYPYDVPDYARSGGSGGMISLIAALAVDYVIGMENAMPWNLPADLAWFKRNTLNKPVIMGRHTWESIGRPLPGRKNIILSSQPSTDDRVTWVKSVDEAIAACGDVPEIMVIGGGRVIEQFLPKAQKLYLTHIDAEVEGDTHFPDYEPDDWESVFSEFHDADAQNSHSYCFEILERRGGSGGSGGKLVPKKKRKVGGSNLLTVHQNLPALPVDATSDEVRKNLMDMFRDRQAFSEHTWKMLLSVCRSWAAWCKLNNRKWFPAEPEDVRDYLLYLQARGLAVKTIQQHLGQLNMLHRRSGLPRPSDSNAVSLVMRRIRKENVDAGERAKQALAFERTDFDQVRSLMENSDRCQDIRNLAFLGIAYNTLLRIAEIARIRVKDISRTDGGRMLIHIGRTKTLVSTAGVEKALSLGVTKLVERWISVSGVADDPNNYLFCRVRKNGVAAPSATSQLSTRALEGIFEATHRLIYGAKDDSGQRYLAWSGHSARVGAARDMARAGVSIPEIMQAGGWTNVNIVMNYIRNLDSETGAMVRLLEDGD
# modifications: MISC_FEATURE - HAtag; DOMAIN 21..179 degradation domain; SIGNAL 190..197 Nuclear Localization Signal; Bacteriophage P1
# B2: split-Cre: Cre split between Ser152 and Asp153 into N-terminal (a.a. 2-152) and C-terminal (a.a. 153-343) self-assembling fragments; SEQ ID No: 8 (protein)
# chain: MVSKYPYDVPDYARSGGSGGKLVPKKKRKVGGSNLLTVHQNLPALPVDATSDEVRKNLMDMFRDRQAFSEHTWKMLLSVCRSWAAWCKLNNRKWFPAEPEDVRDYLLYLQARGLAVKTIQQHLGQLNMLHRRSGLPRPSDSNAVSLVMRRIRKENVDAGERAKQALAFERTDFDQVRSLMENSGSGSGATNFSLLKQAGDVEENPGPLEDRCQDIRNLAFLGIAYNTLLRIAEIARIRVKDISRTDGGRMLIHIGRTKTLVSTAGVEKALSLGVTKLVERWISVSGVADDPNNYLFCRVRKNGVAAPSATSQLSTRALEGIFEATHRLIYGAKDDSGQRYLAWSGHSARVGAARDMARAGVSIPEIMQAGGWTNVNIVMNYIRNLDSETGAMVRLLEDGD
# modifications: MISC_FEATURE - HAtag; SIGNAL 23..30 Nuclear Localization Signal; MISC_FEATURE - N-terminal of Cre; MISC_FEATURE - P2A; MISC_FEATURE - C-terminal side of Cre; Bacteriophage P1
# B3: SPEED-Cre: split Cre with a DD sequence on each of the N-terminal and C-terminal fragments; SEQ ID No: 10 (protein)
# chain: MVSKYPYDVPDYARSGGSGGMISLIAALAVDYVIGMENAMPWNLPADLAWFKRNTLNKPVIMGRHTWESIGRPLPGRKNIILSSQPSTDDRVTWVKSVDEAIAACGDVPEIMVIGGGRVIEQFLPKAQKLYLTHIDAEVEGDTHFPDYEPDDWESVFSEFHDADAQNSHSYCFEILERRGGSGGSGGKLVPKKKRKVGGSNLLTVHQNLPALPVDATSDEVRKNLMDMFRDRQAFSEHTWKMLLSVCRSWAAWCKLNNRKWFPAEPEDVRDYLLYLQARGLAVKTIQQHLGQLNMLHRRSGLPRPSDSNAVSLVMRRIRKENVDAGERAKQALAFERTDFDQVRSLMENSGSGSGATNFSLLKQAGDVEENPGPLEDRCQDIRNLAFLGIAYNTLLRIAEIARIRVKDISRTDGGRMLIHIGRTKTLVSTAGVEKALSLGVTKLVERWISVSGVADDPNNYLFCRVRKNGVAAPSATSQLSTRALEGIFEATHRLIYGAKDDSGQRYLAWSGHSARVGAARDMARAGVSIPEIMQAGGWTNVNIVMNYIRNLDSETGAMVRLLEDGDGGSGGSGGMISLIAALAVDYVIGMENAMPWNLPADLAWFKRNTLNKPVIMGRHTWESIGRPLPGRKNIILSSQPSTDDRVTWVKSVDEAIAACGDVPEIMVIGGGRVIEQFLPKAQKLYLTHIDAEVEGDTHFPDYEPDDWESVFSEFHDADAQNSHSYCFEILERR
# modifications: MISC_FEATURE - HAtag; DOMAIN 21..179 Degradation Domain; SIGNAL 190..197 Nuclear Localization Signal; MISC_FEATURE - N-terminal side of Cre; MISC_FEATURE - P2A; MISC_FEATURE - C-terminal side of Cre; DOMAIN 576..734 Degradation Domain; Bacteriophage P1
# B4: DD-sasCre: sasCre tagged with a single DD sequence on the N terminal side of Cre; SEQ ID No: 9 (protein)
# chain: MVSKYPYDVPDYARSGGSGGMISLIAALAVDYVIGMENAMPWNLPADLAWFKRNTLNKPVIMGRHTWESIGRPLPGRKNIILSSQPSTDDRVTWVKSVDEAIAACGDVPEIMVIGGGRVIEQFLPKAQKLYLTHIDAEVEGDTHFPDYEPDDWESVFSEFHDADAQNSHSYCFEILERRGGSGGSGGKLVPKKKRKVGGSNLLTVHQNLPALPVDATSDEVRKNLMDMFRDRQAFSEHTWKMLLSVCRSWAAWCKLNNRKWFPAEPEDVRDYLLYLQARGLAVKTIQQHLGQLNMLHRRSGLPRPSDSNAVSLVMRRIRKENVDAGERAKQALAFERTDFDQVRSLMENSGSGSGATNFSLLKQAGDVEENPGPLEDRCQDIRNLAFLGIAYNTLLRIAEIARIRVKDISRTDGGRMLIHIGRTKTLVSTAGVEKALSLGVTKLVERWISVSGVADDPNNYLFCRVRKNGVAAPSATSQLSTRALEGIFEATHRLIYGAKDDSGQRYLAWSGHSARVGAARDMARAGVSIPEIMQAGGWTNVNIVMNYIRNLDSETGAMVRLLEDGD
# modifications: MISC_FEATURE - HAtag; DOMAIN 21..179 Degradation Domain; SIGNAL 190..197 Nuclear Localization Signal; MISC_FEATURE - N-terminal side of Cre; MISC_FEATURE - P2A; MISC_FEATURE - C-terminal side of Cre; Bacteriophage P1
# Key:
# [1] = system: DNA sequence flanked by two loxP sites (loxP-stop-loxP Fluc reporter) in HEK293 cells; test: luciferase assay of Cre-loxP DNA recombination in HEK293 cells; type: cell-based, human; conditions: for background DNA recombination activity (leakage) in the absence of TMP: luciferase reporter; for TMP-dependent DNA recombination activity (induction): TMP 10 nM or 500 nM vs DMSO
# From the text: For constructing a luciferase reporter for detecting Cre-loxP recombinase activity, the polyadenylation signal (poly(A)) repeated sequence (“stop”)) flanked by two loxP sites ([…]: SEQ ID No: 36) in the same orientation was amplified from Addgene plasmid (ID: 22797). Sequence encoding firefly luciferase (Fluc) was amplified from pGL4.31 vector (Promega). The loxP stop-loxP-Fluc construct was inserted into HindIII and XhoI sites in pcDNA3.1 (+) vector containing the CMV promoter.
# HEK293T cells (American Type Culture Collection: ATCC) were cultured at 37° C. under 5% CO2 in Dulbecco's Modified Eagle Medium (DMEM; Thermo Fisher Scientific) supplemented with 10% fetal bovine serum (FBS; Thermo Fisher Scientific), 100 units/ml of penicillin and 100 μg/ml of streptomycin (Thermo Fisher Scientific) and 2 mM GlutaMAX (Thermo Fisher Scientific).
# For luciferase assay, HEK 293 cells were plated at 25,000 cells per well on a 96-well flat white microplate (Thermo Fisher Scientific), and were then cultured for 24 hours at 37° C. in 5% CO2. The cells were transfected with cDNAs encoding destabilized Cre along with the luciferase reporter (loxP-stop-loxP Fluc), using X-tremeGENE9 reagent (Merck Millipore) at 37° C. The total amount of DNA was 50 ng per well. Twenty-four hours after the transfection, TMP or DMSO was added into the cells, and the cells were further cultured for 24 hours or 48 hours. Just before the luciferase assay, the medium was replaced with Hanks' balanced salt solution (HBSS) (Thermo Fisher Scientific) containing 0.2 mM D-luciferin potassium salt. Bioluminescence measurement was performed for 1 second per well at room temperature using a Centro XS^3 LB 960 plate-reading luminometer (Berthold Technologies).
# [2] = system: loxP-stop-loxP Fluc reporter in mice liver; test: in vivo Cre-loxP recombination, bioluminescence imaging after HTV injection into mice; conditions: for DNA recombination activity in vivo in the absence of TMP: HTV injection, DMSO I.P., bioluminescence 24 hours after injection; for TMP-dependent DNA recombination activity in vivo: TMP 167 μg/g body weight I.P. 3 hours after HTV injection
# Protocol: Experiments using mice were performed in accordance with the Guidelines for Care and Use of Laboratory Animals as stated by the University of Tokyo. In all the experiments, four week-old female Slc: ICR mice (Sankyo Labo Service Corporation, Inc.) were used. The mice were […] with cDNAs encoding destabilized Cre along with the luciferase reporter (loxP-stop-loxP Fluc) at 1:9 ratio, using TransIT-EE Hydrodynamic Delivery Solution (Mirus Bio LLC, Madison). The total amount of the DNA injected into a mouse was 10 μg per mouse. The volume of a delivery solution was set at 0.1 mL per mouse weight (g). After the hydrodynamic (HTV) injection of DNA, the mice were bred for 3 hours, and thereafter, TMP (167 μg/g body weight) or DMSO was intraperitoneally (I.P.) injected into the mice. The total volume of the TMP solution injected into a mouse was 100 μL per mouse weight (g). The intraperitoneally injected mice were bred for further 21 hours. The bioluminescence imaging of the mice was performed 24 hours after the HTV injection of DNA. Prior to the bioluminescence imaging, 100 mM D-luciferin was intraperitoneally injected into the mice. The total volume of the injected D-luciferin solution was 10 μL per mouse weight (g). Three minutes after the D-luciferin injection, the bioluminescence images of the mice were obtained using the Lumazone bioluminescence imager (Nippon Roper) equipped with the Evolve EMCCD camera (Photometrics) for 1 minutes. During the intraperitoneal D-luciferin injection and the bioluminescence imaging, the mice were anaesthetized with isoflurane (Abb Vie) to keep them motionless. The obtained data were analyzed with the SlideBook 4.2 software (Intelligent Innovations Inc.).
# Next, the usefulness of SPEED-Cre in a living mouse body, namely, in vivo was examined. Using a hydrodynamic tail vain (HTV) injection method (Liu et al., Gene Ther. 6:1258-1266, 1999), mice liver was we transiently transfected with DD-Cre or SPEED-Cre (FIG. 5a). Three hours after the HTV injection, TMP (167 μg/g body weight) or DMSO was intraperitoneally (I.P.) administered into the DD-Cre- or SPEED-Cre-transfected mice (FIG. 5a). The DNA recombination activity was measured using the bioluminescence of a luciferase reporter as an indicator. […] The DNA recombination ability of DD-Cre in vivo was consistent to the ability in in vitro experiments using the human cell line.
Molecule,"TMP-dependent DNA recombination activity ([1]; HEK293 cells transfected with 5 ng of expression plasmid, TMP treatment)","background DNA recombination activity (leakage) in the absence of TMP ([1]; HEK293 cells, no TMP)","recombination activity after reduction of the transfection amount ([1]; transfection amount reduced by one 400th, HEK293 cells)",DNA recombination activity in vivo in the absence of TMP [2],TMP-dependent DNA recombination activity in vivo [2],"recombination efficiency of the self-assembled split fragments ([1]; N-terminal (a.a. 2-152) and C-terminal (a.a. 153-343) fragments expressed via P2A in HEK293 cells, no TMP)","TMP-dependent DNA recombination activity (induction) ([1]; 5 ng expression plasmid, 24 or 48 hours (FIG. 4d))","leakage of DNA recombination activity in the absence of TMP as a function of the amount of expression plasmid ([1]; HEK293 cells, plasmid amount varied, no TMP)","TMP-dependent DNA recombination activity (induction) ([1]; expression plasmid in various amounts, 24 or 48 hours (FIGS. 4f and g))"
B1,does not induce the DNA recombination,almost the same level of the recombination activity of iCre,remained at almost the same level as that before the reduction of the transfection amount,high DNA recombination activity at the same level as iCre,DNA recombination was not induced,–,–,–,–
B2,–,–,–,–,–,high recombination efficiency comparable to that of iCre,–,–,–
B3,–,extremely low level that was comparable to the case of using the pcDNA3.1 empty vector plasmid and the reporter plasmid,–,"suppressed to low, comparable to a negative control group using the pcDNA3.1 empty vector plasmid","high TMP-dependent DNA recombination activity, comparable to the recombination activity of Cre",–,not less than 10 fold,maintained a low level,up to 330 fold
B4,–,significantly lower activity leakage than DD-Cre 1.4,–,–,–,–,–,–,–
